Experimental data from publication PMC3407131, “Annexin A2 Is a Natural Extrahepatic Inhibitor of the PCSK9-Induced LDL Receptor Degradation” (PLoS ONE, 2012).

B1: 73 aa peptide corresponding to the AnxA2 R1 domain (residues 25–97) (peptide, UniProt P07355 25-97, looked up)
peptide: GSVKAYTNFDAERDALNIETAIKTKGVDEVTIVNILTNRSNAQRQDIAFAYQRRTKKELASALKSALSGHLET
modifications: N-terminus acetylated; C-terminal amide
notes: annexin A2 (AnxA2), residues 25–97 of the R1 domain; also called 73-mer AnxA2 peptide (aa 25–97); long peptide form; source: synthetic peptide (solid phase synthesis, RP-HPLC purified)
B2: intermediate 49 aa AnxA2 peptide (residues 49–97) (peptide, UniProt P07355 49-97, looked up)
peptide: Ac-KGVDEVTIVNILTNRSNAQRQDIAFAYQRRTKKELASALKSALSGHLET-NH2
notes: annexin A2 (AnxA2), residues 49–97 of the R1 domain; also called intermediate length peptide (49–97); aa 49–97 peptide; source: synthetic peptide (solid phase synthesis, RP-HPLC purified)

Molecular target: T1, biotin-labeled human PCSK9 protein (residues 30–692) (human, UniProt Q8NBP7 30-692, biotin-labeled (site not stated))
T1 construct: PCSK9, human, residues 30–692; written as one chain; Held on streptavidin donor beads by the biotin; also called biotinylated PCSK9; full length PCSK9; source: baculovirus expression, purified recombinant
Assay: AlphaScreen or HTRF; competition: biotin-PCSK9 (15 nM) and His-LDLR ectodomain (15 nM) mixed with increasing AnxA2 peptide, 60 min at 20°C in 25 mM Hepes pH 7.4, 100 mM NaCl, 0.5 mM CaCl2, 0.1% BSA; streptavidin donor and nickel chelate acceptor beads, overnight at 20°C
Details: both partners purified

T1 sequence (Q8NBP7 30-692): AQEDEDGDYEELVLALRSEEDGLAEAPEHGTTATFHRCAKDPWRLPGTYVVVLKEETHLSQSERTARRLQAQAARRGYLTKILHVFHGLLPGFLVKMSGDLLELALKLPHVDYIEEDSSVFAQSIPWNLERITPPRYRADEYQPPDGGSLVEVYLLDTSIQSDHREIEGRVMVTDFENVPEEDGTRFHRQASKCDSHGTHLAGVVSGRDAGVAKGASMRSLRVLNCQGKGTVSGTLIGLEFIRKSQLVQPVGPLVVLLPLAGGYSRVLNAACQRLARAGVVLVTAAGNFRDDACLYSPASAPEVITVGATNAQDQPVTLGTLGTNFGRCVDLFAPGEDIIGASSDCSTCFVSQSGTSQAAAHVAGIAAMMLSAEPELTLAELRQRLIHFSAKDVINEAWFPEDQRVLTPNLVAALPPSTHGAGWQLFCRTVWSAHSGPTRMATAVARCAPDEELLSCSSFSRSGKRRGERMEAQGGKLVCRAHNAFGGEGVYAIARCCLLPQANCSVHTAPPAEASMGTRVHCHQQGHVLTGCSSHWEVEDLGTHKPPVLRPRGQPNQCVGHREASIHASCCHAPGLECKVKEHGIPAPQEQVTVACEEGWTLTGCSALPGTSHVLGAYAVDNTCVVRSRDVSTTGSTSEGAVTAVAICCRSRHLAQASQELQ

Binder	IC50	fold lower apparent potency than the peptide 25–97
B1	~600 nM	–
B2	–	~20 fold
